Results taken from article PMC2848186.

The substances below were run against GST-GCN5 (assay: pull-down; GST-GCN5 (1 ug) immobilised on glutathione beads, pre-treated with DNase I and RNase H; incubated with 600 c.p.m. of in vitro translated [35S]-IN proteins in 0.2 mg/ml ethidium bromide; SDS-PAGE and phosphoimaging; bound protein as percent of radiolabeled input).
Chain of GST-GCN5 (Q92830 2-837): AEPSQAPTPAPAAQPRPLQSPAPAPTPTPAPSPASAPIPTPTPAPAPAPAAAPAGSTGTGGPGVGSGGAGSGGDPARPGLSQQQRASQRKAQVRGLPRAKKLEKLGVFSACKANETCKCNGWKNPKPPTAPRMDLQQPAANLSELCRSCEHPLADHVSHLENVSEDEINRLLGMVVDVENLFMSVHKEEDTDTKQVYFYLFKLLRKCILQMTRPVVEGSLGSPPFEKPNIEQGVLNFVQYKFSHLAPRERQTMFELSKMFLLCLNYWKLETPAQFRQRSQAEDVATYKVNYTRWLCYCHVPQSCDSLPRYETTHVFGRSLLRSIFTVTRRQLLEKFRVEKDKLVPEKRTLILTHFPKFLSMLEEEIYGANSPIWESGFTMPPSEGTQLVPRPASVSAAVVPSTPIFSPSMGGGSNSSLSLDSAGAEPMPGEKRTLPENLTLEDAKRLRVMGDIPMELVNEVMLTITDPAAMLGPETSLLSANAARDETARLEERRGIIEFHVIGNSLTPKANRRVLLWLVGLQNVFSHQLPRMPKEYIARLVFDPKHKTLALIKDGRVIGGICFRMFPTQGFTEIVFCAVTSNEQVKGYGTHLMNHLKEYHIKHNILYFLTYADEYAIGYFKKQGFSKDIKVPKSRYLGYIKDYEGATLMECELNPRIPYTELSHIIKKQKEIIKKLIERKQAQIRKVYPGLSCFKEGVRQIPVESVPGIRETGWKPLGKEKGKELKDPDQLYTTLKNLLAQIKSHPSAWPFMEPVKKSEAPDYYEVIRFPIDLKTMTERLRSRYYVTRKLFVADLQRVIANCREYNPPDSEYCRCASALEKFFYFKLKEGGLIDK

Substance	binding efficiency (percent of radiolabeled input bound) [%]
35S-IN, full-length HIV-1 integrase, in vitro translated (from UniProt P04585) (enzyme)	16
35S-IN fragment 1-272 (from UniProt P04585 2-273) (domain or fragment)	13
35S-IN fragment 1-263 (from UniProt P04585 2-264) (domain or fragment)	13
